# Values quoted from earlier work in publication PMC4431351.
# Molecular target: MUC1 tandem-repeat synthetic peptide (UniProt P15941)
# Conditions: Probe assembled in 5 mM sodium phosphate pH 7.4, then PBS (10 mM sodium phosphate, 140 mM NaCl, 2.70 mM KCl, pH 7.6), room temperature; cell incubation details …
# UniProt P15941, sequence (P15941 whole entry): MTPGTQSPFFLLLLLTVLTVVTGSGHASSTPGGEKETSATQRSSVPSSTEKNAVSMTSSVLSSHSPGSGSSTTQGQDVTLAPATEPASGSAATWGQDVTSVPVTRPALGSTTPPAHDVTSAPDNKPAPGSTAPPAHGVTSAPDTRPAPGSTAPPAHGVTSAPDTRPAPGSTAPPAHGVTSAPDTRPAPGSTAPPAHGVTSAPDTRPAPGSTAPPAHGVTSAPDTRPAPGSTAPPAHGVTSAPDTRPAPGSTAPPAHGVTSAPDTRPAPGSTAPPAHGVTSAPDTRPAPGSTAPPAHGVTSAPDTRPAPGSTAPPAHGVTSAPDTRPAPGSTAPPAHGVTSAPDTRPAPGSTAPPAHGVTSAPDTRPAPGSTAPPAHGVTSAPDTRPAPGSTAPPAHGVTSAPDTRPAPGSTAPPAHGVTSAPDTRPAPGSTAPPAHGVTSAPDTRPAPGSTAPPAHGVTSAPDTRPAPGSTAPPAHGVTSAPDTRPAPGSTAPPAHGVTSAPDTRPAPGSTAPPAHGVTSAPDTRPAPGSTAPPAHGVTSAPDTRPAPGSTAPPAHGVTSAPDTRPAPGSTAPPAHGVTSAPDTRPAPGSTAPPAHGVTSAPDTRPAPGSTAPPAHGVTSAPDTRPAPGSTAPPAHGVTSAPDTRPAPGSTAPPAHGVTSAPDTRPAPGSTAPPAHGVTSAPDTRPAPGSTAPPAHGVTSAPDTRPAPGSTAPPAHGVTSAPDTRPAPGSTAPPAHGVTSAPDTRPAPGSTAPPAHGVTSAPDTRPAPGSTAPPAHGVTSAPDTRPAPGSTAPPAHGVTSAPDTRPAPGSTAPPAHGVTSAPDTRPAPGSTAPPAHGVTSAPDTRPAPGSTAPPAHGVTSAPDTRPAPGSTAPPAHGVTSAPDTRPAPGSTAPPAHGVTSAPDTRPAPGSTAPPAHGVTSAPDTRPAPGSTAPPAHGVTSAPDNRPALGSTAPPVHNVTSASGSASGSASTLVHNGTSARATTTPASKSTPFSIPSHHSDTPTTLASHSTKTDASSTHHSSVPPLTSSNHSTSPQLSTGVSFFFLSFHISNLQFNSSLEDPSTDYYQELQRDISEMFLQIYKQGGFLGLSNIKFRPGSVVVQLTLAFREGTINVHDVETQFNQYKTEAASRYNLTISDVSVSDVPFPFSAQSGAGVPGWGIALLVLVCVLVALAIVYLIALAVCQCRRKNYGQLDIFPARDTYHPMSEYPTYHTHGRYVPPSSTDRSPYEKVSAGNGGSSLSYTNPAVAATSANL
sequence,measurement,value
GCAGTTGATCCTTTGGATACCCTGG [AptMUC1 (25-mer)],Kd,0.1 nM
